The target of assay [1] is T1, 6xHis-tagged hPTPRS Fn9 (residues 1117-1270) (human, UniProt Q13332 1117-1270).
T1 chain: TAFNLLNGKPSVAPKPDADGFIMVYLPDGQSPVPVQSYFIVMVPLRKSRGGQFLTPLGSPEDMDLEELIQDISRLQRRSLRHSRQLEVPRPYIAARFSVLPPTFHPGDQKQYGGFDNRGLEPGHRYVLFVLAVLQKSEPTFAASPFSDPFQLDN
The assay is described as follows: BLI.

For assay [2], the target named is T2, C-terminally 6xHis tagged mouse PTPRS (mPTPRS) ECD (mouse, UniProt B0V2N1 30-1257).
T2 chain: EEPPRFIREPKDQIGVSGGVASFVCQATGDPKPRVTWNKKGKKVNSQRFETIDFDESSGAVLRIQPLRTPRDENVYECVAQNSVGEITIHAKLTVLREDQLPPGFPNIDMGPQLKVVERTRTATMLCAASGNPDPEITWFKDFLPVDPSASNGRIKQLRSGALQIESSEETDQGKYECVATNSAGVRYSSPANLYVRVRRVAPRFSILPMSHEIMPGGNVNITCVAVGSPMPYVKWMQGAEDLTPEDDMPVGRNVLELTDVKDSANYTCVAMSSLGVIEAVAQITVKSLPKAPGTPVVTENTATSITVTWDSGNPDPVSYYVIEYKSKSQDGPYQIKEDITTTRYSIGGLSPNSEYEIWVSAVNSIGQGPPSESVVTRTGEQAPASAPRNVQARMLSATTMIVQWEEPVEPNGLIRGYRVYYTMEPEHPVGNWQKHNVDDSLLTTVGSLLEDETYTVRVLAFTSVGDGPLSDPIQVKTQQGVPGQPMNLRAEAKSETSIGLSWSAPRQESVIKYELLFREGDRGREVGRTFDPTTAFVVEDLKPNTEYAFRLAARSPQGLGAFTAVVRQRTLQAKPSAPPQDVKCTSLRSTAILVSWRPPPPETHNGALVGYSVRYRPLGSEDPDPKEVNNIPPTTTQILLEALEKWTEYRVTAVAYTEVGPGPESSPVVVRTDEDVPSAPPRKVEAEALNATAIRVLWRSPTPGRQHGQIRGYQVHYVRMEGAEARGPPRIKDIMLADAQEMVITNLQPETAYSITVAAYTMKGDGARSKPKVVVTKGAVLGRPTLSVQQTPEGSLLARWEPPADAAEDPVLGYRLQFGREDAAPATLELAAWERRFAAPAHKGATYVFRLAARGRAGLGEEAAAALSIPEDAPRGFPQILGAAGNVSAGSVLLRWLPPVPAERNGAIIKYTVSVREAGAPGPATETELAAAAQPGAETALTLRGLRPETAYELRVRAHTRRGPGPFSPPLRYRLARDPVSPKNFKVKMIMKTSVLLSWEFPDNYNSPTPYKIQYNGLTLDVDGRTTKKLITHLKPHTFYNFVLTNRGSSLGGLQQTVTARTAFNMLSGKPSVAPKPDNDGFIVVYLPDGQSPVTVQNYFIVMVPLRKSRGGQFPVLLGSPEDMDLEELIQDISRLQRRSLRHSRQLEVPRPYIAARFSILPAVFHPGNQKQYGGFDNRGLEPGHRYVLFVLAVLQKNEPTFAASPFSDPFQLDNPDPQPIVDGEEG
In words: SPR. Background: Surface plasmon resonance follows binding to a sensor surface in real time, without labels.

Assay [3] has as its target T2, C-terminally 6xHis tagged mouse PTPRS …. The assay is described as follows: BLI. (In general: Biolayer interferometry detects binding as a change in optical thickness at a sensor tip.)
For assay [4], the target named is T1, 6xHis-tagged hPTPRS Fn9 (residues …). In words: BLI.
In assay [5] the target is T3, WT human PTPRS (hPTPRS) isoform 1 with a C-terminal HA tag (human, UniProt Q13332).
T3 construct: human PTPRS isoform 1, open reading frame in pcDNA3.1 (+); also called PTPRS-HA; hPTPRS-HA; source: HEK293T, transfected; in RIPA lysate (immunoprecipitation), on or in cells (flow cytometry, PLA); not shown: HA, C-terminal, kept
T3 sequence (Q13332 30-1948): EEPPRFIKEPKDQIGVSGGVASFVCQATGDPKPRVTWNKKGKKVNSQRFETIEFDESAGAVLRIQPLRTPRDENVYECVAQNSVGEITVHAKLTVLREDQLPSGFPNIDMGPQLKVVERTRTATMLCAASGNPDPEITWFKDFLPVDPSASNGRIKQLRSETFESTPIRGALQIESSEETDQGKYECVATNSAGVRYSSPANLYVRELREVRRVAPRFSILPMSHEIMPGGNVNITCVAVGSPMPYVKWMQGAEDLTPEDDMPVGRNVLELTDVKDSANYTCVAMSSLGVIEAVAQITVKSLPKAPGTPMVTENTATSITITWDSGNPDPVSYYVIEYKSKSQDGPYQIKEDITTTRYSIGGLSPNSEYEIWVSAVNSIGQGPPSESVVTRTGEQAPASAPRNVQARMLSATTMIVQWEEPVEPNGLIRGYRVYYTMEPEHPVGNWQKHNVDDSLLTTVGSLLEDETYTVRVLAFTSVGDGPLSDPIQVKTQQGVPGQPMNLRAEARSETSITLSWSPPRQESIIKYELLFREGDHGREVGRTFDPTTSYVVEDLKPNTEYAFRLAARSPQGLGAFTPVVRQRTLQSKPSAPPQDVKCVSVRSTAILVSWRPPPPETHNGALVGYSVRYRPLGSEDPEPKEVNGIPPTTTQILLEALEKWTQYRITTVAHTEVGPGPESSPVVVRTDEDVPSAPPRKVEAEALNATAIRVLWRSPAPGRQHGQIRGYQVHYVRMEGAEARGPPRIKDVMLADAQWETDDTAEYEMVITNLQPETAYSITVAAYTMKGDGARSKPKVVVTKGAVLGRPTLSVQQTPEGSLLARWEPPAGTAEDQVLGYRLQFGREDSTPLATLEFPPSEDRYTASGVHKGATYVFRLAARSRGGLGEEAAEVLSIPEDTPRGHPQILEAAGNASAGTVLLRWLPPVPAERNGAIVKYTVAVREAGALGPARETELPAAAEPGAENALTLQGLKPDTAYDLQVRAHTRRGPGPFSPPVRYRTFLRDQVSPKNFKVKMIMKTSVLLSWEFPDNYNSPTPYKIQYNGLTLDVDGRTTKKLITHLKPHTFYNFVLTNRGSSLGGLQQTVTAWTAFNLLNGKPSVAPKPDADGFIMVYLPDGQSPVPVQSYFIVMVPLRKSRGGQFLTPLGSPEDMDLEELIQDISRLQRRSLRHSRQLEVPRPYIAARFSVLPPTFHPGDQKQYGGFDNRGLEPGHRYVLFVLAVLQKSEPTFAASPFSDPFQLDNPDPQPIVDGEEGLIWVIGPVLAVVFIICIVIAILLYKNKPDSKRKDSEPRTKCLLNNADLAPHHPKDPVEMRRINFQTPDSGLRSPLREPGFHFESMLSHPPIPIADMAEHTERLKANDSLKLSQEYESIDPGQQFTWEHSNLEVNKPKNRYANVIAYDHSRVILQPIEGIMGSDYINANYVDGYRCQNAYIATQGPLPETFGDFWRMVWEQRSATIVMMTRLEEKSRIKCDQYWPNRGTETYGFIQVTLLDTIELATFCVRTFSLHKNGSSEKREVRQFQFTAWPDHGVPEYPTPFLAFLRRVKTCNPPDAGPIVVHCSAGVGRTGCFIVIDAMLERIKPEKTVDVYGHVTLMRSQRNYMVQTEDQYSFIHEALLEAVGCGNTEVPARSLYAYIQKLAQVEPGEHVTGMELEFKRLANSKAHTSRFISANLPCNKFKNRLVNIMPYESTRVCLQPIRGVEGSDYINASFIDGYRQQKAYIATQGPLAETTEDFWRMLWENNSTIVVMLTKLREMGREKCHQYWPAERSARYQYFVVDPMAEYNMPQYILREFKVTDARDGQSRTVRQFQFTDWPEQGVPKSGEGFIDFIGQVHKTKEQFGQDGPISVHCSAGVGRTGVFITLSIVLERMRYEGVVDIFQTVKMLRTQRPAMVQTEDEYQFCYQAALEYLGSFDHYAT
In words: flow cytometry on cells; HEK293T cells transfected with hPTPRS-HA (WT or Fn9mut) or empty vector, incubated 1 h with the antibody, AF568-labelled anti-mouse IgG. Particulars: one partner purified. (In general: In flow cytometry, cells or beads pass a laser one at a time.)

The target in assay [6] is T4, C-terminally 6xHis tagged mouse PTPRS (mPTPRS) ECD (Mus musculus, UniProt B0V2N1).
T4 construct: also called mPTPRS ectodomain; PTPRS ectodomain; source: HEK293T, transiently transfected, supernatant; purified (Ni-NTA, HiTrap heparin); not shown: His6, C-terminal, kept
The assay is described as follows: SPR; Octet SF3; anti-PTPRS Ab immobilised by amine coupling on a PCH sensor chip; analyte mPTPRS ECD 2500 nM to 9.77 nM; 1x PBS with 0.005% Tween-20; multi-cycle kinetics. Particulars: both partners purified.

In assay [7] the target is T5, PTPRS^Δ326 (hPTPRS-HA N-terminal truncation lacking Ig-like domains 1 to 3) (Homo sapiens, UniProt Q13332, point mutant).
T5 construct: human PTPRS isoform 1, N-terminal truncation lacking Ig-like domains 1 to 3, obtained from WT hPTPRS-HA by site-directed mutagenesis; source: HEK293T, transfected, in RIPA lysate; not shown: HA, C-terminal, kept
In words: co-IP; RIPA lysates of HEK293T cells overexpressing HA-tagged full length or truncated hPTPRS incubated with the antibody for 2 h at 4 °C, Protein G Sepharose, anti-HA blot. Particulars: one partner purified.

Assay [8] deals with T6, PTPRS^Δ1096 (hPTPRS-HA N-terminal truncation lacking the ECD including most of Fn8) (Homo sapiens, UniProt Q13332, point mutant).
T6 construct: human PTPRS isoform 1, N-terminal truncation lacking the ECD including most of Fn8, obtained from WT hPTPRS-HA by site-directed mutagenesis; source: HEK293T, transfected, in RIPA lysate; not shown: HA, C-terminal, kept
The description is as above. The settings on record: one partner purified.

Assay [9] addresses T4, C-terminally 6xHis tagged mouse PTPRS …. In words: BLI; His-tagged ligand (mPTPRS ECD or hPTPRS Fn9) immobilised on anti-6xHis probes at 100 to 200 nM; antibodies or scFv-Fc fusions as analytes; Gator K buffer (0.02% BSA, 0.002% Tween-20 in PBS, pH 7.4), 37 °C; biphasic (2:1) association model. Particulars: both partners purified.
For assay [10] the target is unchanged. In words: BLI; data not shown; 9H5 on C-terminally 6xHis tagged mPTPRS ECD immobilised on an anti-6xHis probe. Particulars: both partners purified.

Results on two molecules are retold here after paper PMC12363564, “Modulation of the PTPRS proteoglycan switch by antibodies binding to the membrane-proximal fibronectin-type III domain” (The Journal of Biological Chemistry, 2025).

Residue numbers refer to the chain shown, from its start.

B1: 13G5 (mouse monoclonal antibody, IgG2b/κ) (antibody, V domains shown)
VH: EVKLVESGGGLVQPGGSLKLSCATSGFTFSDYYMYWVRQTPEKRLEWVAYISNGGGSTYYPDTVKGRFTISRDNAKNTLYLQMSRLKSEDTAMYYCARHVYYGRNYAMDYWGQGTSVTVSS
VL: DIQMTQTTSSLSASLGDRVTISCRASQDISNYLNWYQQKPDGTVKLLIYYTSRLHSGVPSRFSGSGSGTDYSLTISNLEQEDIATYFCQQGNTLPYTFGGGTKLEIK
notes: VH of 13G5; constant region of the mouse IgG2b heavy chain; VL of 13G5; constant region of the mouse κ light chain; IgG2b/κ; also called anti-PTPRS Ab 13G5; source: production contracted to Viva Biotech
A word on the Kd: it is the equilibrium constant for the complex coming apart. Low values mean a tighter complex, high ones a looser complex. As usually defined, the koff is a measure of how fast the partners let go of each other. The low end stands for slow dissociation, the high end for fast dissociation. On to B1, for which the Kd in [1] was found to be 6.03 nM; in assay [6], 95 nM; in assay [9] it was 122 ± 1.9 nM. Also, the koff came out at 0.00079 s⁻¹ in assay [2], 0.083 s⁻¹ in assay [3] and 0.003 s⁻¹ in [4]. Moreover, the “mean fluorescence relative to 22H8” value in assay [5] was roughly 2 fold. Besides, the binding result in assay [7] and in assay [8] was “binds” in each case.

B2: 9H5 (mouse monoclonal antibody, IgG1/κ) (antibody, V domains shown)
VH: QVQLVETGGGLVRPGNSLKLSCVTSGFTFSNYRMHWLRQPPGKRLEWIAVITVKSDNYGANYAESVKGRFTISRDDSKSSVYLQMNRLREEDTATYYCSRSVYYGYVLAFDYWGQGTTLTVSS
VL: B1 VL with Y96W
notes: VH of 9H5; constant region of the mouse IgG1 heavy chain; VL of 9H5; constant region of the mouse κ light chain; IgG1/κ; source: production contracted to Viva Biotech
As for B2, the binding result in assay [10] was “no binding”.
